Measured values as given in a protein production outcome set (Wang et al. 2014).

Assay: label from the status in PepcDB records
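Further: failed if final PepcDB status was selected cloned or expressed and not failed if soluble or beyond.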

Sequence | protein production
MLVESFNPFNNLLLSSIVAAIPIILFLLCLTVFKMKGVYAAITTLIVTIIVAMAFFKLPGSIAGGATLEGFYQGIIPIGFIVIMAVWLYKIATKSGQFAIVQDSIASVSRDQRVQLLLIGFVFNGFLEGAAGFGVPIAICAVLLTQLGFKPLQAAMYCLVSNAAAGAYGAVGIPIAIVDTLNLPGGVTTSQVALIGNLTLGFISFVVPFLLMYIMDGFKGVKETFPATLVVAVTFTVLQVLIAAFAGPELADIIPGLVAMIALALFSKKWQPKNIFRINKDEKADAVPKHSIGHITYAWSPFIILTIVVMIWSLPAFKGLFEKGGALSALVVNFNVPGTMNAVTNKPNELTFNFFAQTGTAILITAIITIIIAKNMSFKTAGHLLGLTVKELWISVLTICFILAVSKITTYGGLSNAMGQGISKTGAAFPLLSPLLGWIGVFMTGSVVNNNSLFAPIQASVAEQIGTKGSLLVAANVAGGVTAKIVSPQSIAIATAAVNKVGKESELMKMAMRFSIGLLILVCIWTFICSLFIS | failed
MEELQEPLRGQLRLCFTQAARTSLLLLRLNDAALRALQECQRQQVRPVIAFQGHRGYLRLPGPGWSCLFSFIVSQCCQEGAGGSLDLVCQRFLRSGPNSLHCLGSLRERLIIWAAMDSIPAPSSVQGHNLTEDARHPESWQNTGGYSEGDAVSQPQMALEEVSVSDPLASNQGQSLPGSSREHMAQWEVRSQTHVPNREPVQALPSSASRKRLDKKRSVPVATVELEEKRFRTLPLVPSPLQGLTNQDLQEGEDWEQEDEDMDPRLEHSSSVQEDSESPSPEDIPDYLLQYRAIHSAEQQHAYEQDFETDYAEYRILHARVGTASQRFIELGAEIKRVRRGTPEYKVLEDKIIQEYKKFRKQYPSYREEKRRCEYLHQKLSHIKGLILEFEEKNRGS | failed
RRENHQTIQEFLERIHLQEYTSTLLLNGYETLDDLKDIKESHLIELNIADPEDRARLLSAAESLL | not failed
MISGSATASHGRVLLPSQRERRPVSTGSNILRFRETVPRQFSLMMVTKATAKYMGTKMREEKLSEMIEEKVKEATEVCEAEEMSEECRVAWDEVEEVSQARADLRIKLKLLNQDPLESFCQENPETDECRIYED | failed
MQSSQVKSAMRALEIMEFFRAVKQPRSMSEISIALGYPQSSTTVLLKTLISLGYLNFNRKERLYFPTLKVSALGDWIANSLFSSRDILEVLQDIHMETGETVAIATKNDIYLQYIQIIESVHALRFHVDENAIRPLTMSSNGWMLMSTMNDKAIDNTVRRANTITQKDGIRFEVDDMMARIRQVREQGYASAEHIPFVGGGTICVLLPMTIQGQPVTMGLGGALDRIKQNYDRYLELLLNGVQQLKKSDSFHQPIELAH | failed
MYRHDVSNEEKDIAVSVIALTAAFAIANRFRSPYGPFFILAVSFLVAVTAFLMHELAHRYVARSYGGIAYFKMWPLGLLLALITSLLGFIFAAPGAVNIGGIYRRDQIGKTSLAGPAMNIFLGILFYAISLFTLIPVAIAIFRYVAEMNFWFGFFNLLPIPPLDGYKVFSWDLYVYIVSVVIALVFVVLFVF | failed
MTEPATAESAPAALREMRWWDIDPVLRMERELFPEDAWSRGMFWSELAHARGPGATRRYLVAEEDGHVVGYAGLVTSGEQADVQTIAVARDHWGTGLGARLLTELLRAATDFECTEVLLECRVDNTRAQRLYERFGFEPIGFRRGYYQPGNVDALVMRLTDPSTSVPGTERGTENHG | failed
MTSKSRPNRDLAGRLALAAQLALVLVLAAAPELALAQSTMPGQQLLTFAKNFIIAPIALFAIVISGVAAFIRPDLIKTTGYIAIIAVILYFLLANADRLMQAIRAG | failed
